Measurements published in US20230105457A1, “Immunogenic Compounds For Treatment Of Adrenal Cancer” (ENTEROME S.A., priority 2019, published 2023).
Like-named read-outs stand apart in the source and are kept apart here.

Tests used:
HLA-A*0201 = HLA-A*0201 (Homo sapiens, UniProt P04439, D140Y/D185E/D98H/E176V/E277Q/G131W/G231S/I119V/I121R/I166T/I218V/L300P/L318F/N151K/N90K/P208A/P217A/Q86G/Q94H/R138H/R169H/T345S)
Procedure: T2 cells (2·10^5 cells per well) are incubated with decreasing concentrations of peptides from 100 μM to 0.1 μM in a AIMV medium supplemented with 100 ng/μl of human P2m at 37° C. for 16 hours.
The analysis is achieved by FACS (Guava Easy Cyte).
The relative affinity is then determined as follows:
Each peptide is solubilized by taking into account the amino acid composition. […] Other peptides are resuspended in water or PBS pH7.4.
T2 cells (2·10^5 cells per well) were incubated with decreasing concentrations of peptides from 100 μM to 0.1 μM in a AIMV medium supplemented with 100 ng/μl of human P2m at 37° C. for 16 hours.
The analysis was achieved by FACS (Guava Easy Cyte).

[1] = target: T1, HLA-A*0201 molecule expressed on human tumor cell line T2 (human); assay: T2 cell HLA-A2 stabilisation, FACS; 20% of signal of HIV pol 589-597 at 100 µM
T1 construct: surface HLA-A2 read with anti-HLA-A2 antibody BB7.2-PE by FACS; also called HLA-A2

[2] = target: T1, HLA-A*0201 molecule expressed on human …; assay: T2 cell HLA-A2 stabilisation, FACS; ratio of 20% concentration to that of HIV pol 589-597 (lower = stronger)
[3] = target: T1, HLA-A*0201 molecule expressed on human …; assay: T2 cell HLA-A2 stabilisation, FACS; peptide at 25 µM
[4] = target: T1, HLA-A*0201 molecule expressed on human …; assay: T2 cell HLA-A2 stabilisation, FACS; peptide at 50 µM
[5] = target: T1, HLA-A*0201 molecule expressed on human …; assay: T2 cell HLA-A2 stabilisation, FACS; peptide at 100 µM
[6] = target: T1, HLA-A*0201 molecule expressed on human …; assay: T2 cell HLA-A2 stabilisation, FACS; peptide at 6.25 µM
[7] = target: T1, HLA-A*0201 molecule expressed on human …; assay: T2 cell HLA-A2 stabilisation, FACS; peptide at 3.125 µM
[8] = target: T1, HLA-A*0201 molecule expressed on human …; assay: T2 cell HLA-A2 stabilisation, FACS; peptide at 1.5625 µM
[9] = target: T1, HLA-A*0201 molecule expressed on human …; assay: T2 cell HLA-A2 stabilisation, FACS; 20% of signal of HIV pol 589-597 at 100 µM; remark: listed apart in the source
[10] = target: T1, HLA-A*0201 molecule expressed on human …; assay: T2 cell HLA-A2 stabilisation, FACS; ratio of 20% concentration to that of HIV pol 589-597 (lower = stronger); remark: listed apart in the source
[11] = T2 cell line, HLA-A*0201, Example 13, protocol as in Example 3
[12] = HLA-A*0201, HIV peptide printed as 1

Molecule: YLPFGFILV [IL13RA2-B5]
- Concentration of peptide that induces 20% of HLA-A2 expression (HLA-A*0201; [11]): 1.5 µM

Molecule: YLYTFLIST [IL13RA2-B2]
- In vitro binding affinity (HLA-A*0201; [12]): 5.97
- Concentration of peptide that induces 20% of HLA-A2 expression (HLA-A*0201; [11]): 4.5 µM

Molecule: YMPFGFILV [IL13RA2-B4]
- Concentration of peptide that induces 20% of HLA-A2 expression (HLA-A*0201; [11]): 4.5 µM

Molecule: RLSSYLVEI [FOXM1-B]
- Concentration of peptide that induces 20% of HLA-A2 expression (HLA-A*0201; Table 14, Example 8): 46.7 µM

Molecule: ALPFGFILV [1A9V, reference compound]
- Concentration of peptide that induces 20% of HLA-A2 expression (HLA-A*0201; [11]): 20.9 µM
- Concentration of peptide that induces 20% of HLA-A2 expression (HLA-A*0201; Table 12, Example 7): 36.5 µM

Molecule: HIV: Reference peptide HIV pol 589-597, positive control (ISPIETVPV; UniProt P04585 589-597, looked up, fragment) [reference compound]
- In vitro binding affinity (HLA-A*0201; [12]): 1
- Concentration of peptide that induces 20% of HLA-A2 expression (HLA-A*0201; Table 17, Example 12): 0.85 µM
- In vitro binding affinity (HLA-A*0201; Table 17, Example 12, relative affinity vs HIV): 1.00
- Relative HLA-A2 labelling on T2 cells (HIV at 100 μM = 100) (HLA-A*0201; Table 18, peptide concentration 0.1 μM): 2.405
- Relative HLA-A2 labelling on T2 cells (HIV at 100 μM = 100) (HLA-A*0201; Table 18, peptide concentration 1 μM): 22.14
- Relative HLA-A2 labelling on T2 cells (HIV at 100 μM = 100) (HLA-A*0201; Table 18, peptide concentration 10 μM): 84.725
- Relative HLA-A2 labelling on T2 cells (HIV at 100 μM = 100) (HLA-A*0201; Table 18, peptide concentration 100 μM): 100

Molecule: FMPFGFILPI [IL13RA2-B6]
- Concentration of peptide that induces 20% of HLA-A2 expression (HLA-A*0201; [11]): 5.9 µM

Molecule: LMLGEFLKL [2M, reference compound]
- Concentration of peptide that induces 20% of HLA-A2 expression (HLA-A*0201; Table 17, Example 12): 2.87 µM

Molecule: FMPFGFILGV [IL13RA2-B3]
- Concentration of peptide that induces 20% of HLA-A2 expression (HLA-A*0201; [11]): 3.3 µM

Molecule: RVSSYLVPI (listed as Homo sapiens) [FOXM1-H, reference compound]
- Concentration of peptide that induces 20% of HLA-A2 expression (HLA-A*0201; Table 14, Example 8): 37.6 µM

Molecule: FMPFGFILPI [IL13RA2-B6]
- Concentration of peptide that induces 20% of HLA-A2 expression [1]: 5.9 µM
- In vitro binding affinity (relative affinity) [2]: 6.86

Molecule: WLPFGFILI [IL13RA2-H]
- mean relative fluorescence intensity [3]: 11.2 relative (HIV peptide = 100)
- mean relative fluorescence intensity [4]: 14.2 relative (HIV peptide = 100)
- mean relative fluorescence intensity [5]: 26.5 relative (HIV peptide = 100)
- mean relative fluorescence intensity [6]: 9.6 relative (HIV peptide = 100)
- mean relative fluorescence intensity [7]: 3.7 relative (HIV peptide = 100)
- mean relative fluorescence intensity [8]: 3 relative (HIV peptide = 100)
- Concentration of peptide that induces 20% of HLA-A2 expression [1]: 62.3 µM
- In vitro binding affinity (relative affinity) [2]: 78.8

Molecule: FMPFGFILV [IL13RA2-B2 (SEQ ID NO: 64, Example 13)]
- Concentration of peptide that induces 20% of HLA-A2 expression [1]: 4.5 µM
- In vitro binding affinity (relative affinity) [2]: 5.97

Molecule: YLPFGFILV [IL13RA2-B5]
- Concentration of peptide that induces 20% of HLA-A2 expression [1]: 1.5 µM
- In vitro binding affinity (relative affinity) [2]: 1.76

Molecule: YMPFGFILV [IL13RA2-B4]
- Concentration of peptide that induces 20% of HLA-A2 expression [1]: 4.5 µM
- In vitro binding affinity (relative affinity) [2]: 5.24

Molecule: FMPFGFILGV [IL13RA2-B3]
- Concentration of peptide that induces 20% of HLA-A2 expression [1]: 3.3 µM
- In vitro binding affinity (relative affinity) [2]: 4.39

Molecule: LMDLSTTPL [FOXM1-H2]
- mean relative fluorescence intensity [3]: 65.4 relative (HIV peptide = 100)
- mean relative fluorescence intensity [4]: 62.5 relative (HIV peptide = 100)
- mean relative fluorescence intensity [5]: 77.6 relative (HIV peptide = 100)
- mean relative fluorescence intensity [6]: 19.7 relative (HIV peptide = 100)
- mean relative fluorescence intensity [7]: 0.9 relative (HIV peptide = 100)
- mean relative fluorescence intensity [8]: 5.3 relative (HIV peptide = 100)
- Concentration of peptide that induces 20% of HLA-A2 expression [9]: 12.6 µM
- In vitro binding affinity (relative affinity) [10]: 2.5

Molecule: RLSSYLVEI [FOXM1-B]
- mean relative fluorescence intensity [3]: 7.6 relative (HIV peptide = 100)
- mean relative fluorescence intensity [4]: 21.3 relative (HIV peptide = 100)
- mean relative fluorescence intensity [5]: 47.5 relative (HIV peptide = 100)
- mean relative fluorescence intensity [6]: 0 relative (HIV peptide = 100)
- mean relative fluorescence intensity [7]: 0 relative (HIV peptide = 100)
- mean relative fluorescence intensity [8]: 0 relative (HIV peptide = 100)
- Concentration of peptide that induces 20% of HLA-A2 expression [9]: 46.7 µM
- In vitro binding affinity (relative affinity) [10]: 4.6

Molecule: LMDLSTTEV [FOXM1-B2]
- mean relative fluorescence intensity [3]: 98.2 relative (HIV peptide = 100)
- mean relative fluorescence intensity [4]: 91.5 relative (HIV peptide = 100)
- mean relative fluorescence intensity [5]: 105 relative (HIV peptide = 100)
- mean relative fluorescence intensity [6]: 33.5 relative (HIV peptide = 100)
- mean relative fluorescence intensity [7]: 12.7 relative (HIV peptide = 100)
- mean relative fluorescence intensity [8]: 7.2 relative (HIV peptide = 100)
- Concentration of peptide that induces 20% of HLA-A2 expression [9]: 6.7 µM
- In vitro binding affinity (relative affinity) [10]: 1.3

Molecule: YTLGEFLYI [BIRC5-B2]
- mean relative fluorescence intensity [3]: 29.6 relative (HIV peptide = 100)
- mean relative fluorescence intensity [4]: 54.4 relative (HIV peptide = 100)
- mean relative fluorescence intensity [5]: 58 relative (HIV peptide = 100)
- mean relative fluorescence intensity [6]: 9 relative (HIV peptide = 100)
- mean relative fluorescence intensity [7]: 6.6 relative (HIV peptide = 100)
- Concentration of peptide that induces 20% of HLA-A2 expression [9]: 14.7 µM
- In vitro binding affinity (relative affinity) [10]: 4.5

Molecule: RVSSYLVPI [FOXM1-H]
- mean relative fluorescence intensity [3]: 10.5 relative (HIV peptide = 100)
- mean relative fluorescence intensity [4]: 30.7 relative (HIV peptide = 100)
- mean relative fluorescence intensity [5]: 83.8 relative (HIV peptide = 100)
- mean relative fluorescence intensity [6]: 0 relative (HIV peptide = 100)
- mean relative fluorescence intensity [7]: 0 relative (HIV peptide = 100)
- mean relative fluorescence intensity [8]: 0 relative (HIV peptide = 100)
- Concentration of peptide that induces 20% of HLA-A2 expression [9]: 37.6 µM
- In vitro binding affinity (relative affinity) [10]: 3.7

Molecule: GLLGEFLQI [BIRC5-B3]
- mean relative fluorescence intensity [3]: 20.9 relative (HIV peptide = 100)
- mean relative fluorescence intensity [4]: 29.8 relative (HIV peptide = 100)
- mean relative fluorescence intensity [5]: 35 relative (HIV peptide = 100)
- mean relative fluorescence intensity [7]: 8.9 relative (HIV peptide = 100)
- mean relative fluorescence intensity [8]: 9.4 relative (HIV peptide = 100)
- Concentration of peptide that induces 20% of HLA-A2 expression [9]: 22.9 µM
- In vitro binding affinity (relative affinity) [10]: 7
